In patent US10227575B2, “Multi-domain enzymes having cutinase activity, compositions comprising same and uses thereof” (OZYMES, priority 2015, dated 2019):
Several values for one entry are separate records, joined by “and”; a condition that tells them apart may be missing. Identical values can stand only once. Like-named read-outs stand apart in the source and are kept apart here. Marks after values point to notes of the source that are not given here.

What was measured:
[1] = Activity of crude culture supernatants from bioreactor; assay type: biochemical; conditions: pNP-dodecanoate
[2] = Temperature optimum; assay type: biochemical; conditions: for Relative activity at temperature: highest activity set to 100%
Experimental: For estimation of the temperature optimum, buffer containing pNP-palmitate (see esterase assay in Example 20.1) was pre-incubated to reach the desired temperature, enzyme was then added, and the formation of pNP was assayed. For this experiment, Tris/HCl buffer was replaced with sodium phosphate buffer (50 mM, pH 8.0) to avoid a pH shift at the different temperatures.

[3] = Specific activity of purified enzymes (standard esterase assay); assay type: biochemical
Method in brief: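 Purified enzymes tested on pNP-esters, including pNP-palmitate, at 0.8 mM final in 50 mM Tris/HCl pH 8.0 (substrate predissolved in 2-propanol). p-Nitrophenol release followed at 410 nm (ε 15 mM^−1 cm^−1); 1 U = 1 μmol pNP/min, specific activity given as U/mg protein.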

[4] = pH dependence of enzymes; assay type: biochemical; conditions: for Relative activity (%): highest activity = 100%
Experimental: The influence of different pH values (from 5.5 to 11) on the activities of the purified enzymes was examined in three buffer systems (sodium acetate, sodium phosphate, and Tris-HCl) at room temperature using pNP-palmitate (see esterase assay in Example 20.1) as a substrate at a final substrate concentration of 0.8 mM.

[5] = Stability in the presence of hydrogen peroxide; assay type: physicochemical
Method in brief: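 Purified cutinases held at room temperature with 0, 30, 100, 300, 1500 or 3000 ppm H2O2; residual esterase activity assayed after 1, 2, 3 and 7 days. Activity read as pNP release at 410 nm from pNP-esters (0.8 mM final) in 50 mM Tris/HCl pH 8.0; U = 1 μmol pNP/min, ε 15 mM^−1 cm^−1.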

[6] = Enzyme substrate profiles, esterase assays; assay type: biochemical; conditions: highest activity towards a specific substrate set to 100%
Method in brief: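 Hydrolysis of pNP-ester substrates, final 0.8 mM (from 8 mM 2-propanol stock), in 50 mM Tris/HCl pH 8.0, followed as pNP release at 410 nm (ε 15 mM^−1 cm^−1). One U = 1 μmol pNP/min; specific activity as U/mg protein.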

[7] = Enzymatic activity in the presence of organic solvents; assay type: biochemical; conditions: buffer only = 100%
Experimental: Enzyme activity in various organic solvents was studied over a concentration range of 1-30% at room temperature. pNP-palmitate was completely dissolved in 2-propanol (8 mM) and then added to 50 mM Tris/HCl buffer pH 8.0 containing up to 30% organic solvent to give a final substrate concentration of 0.8 mM. The reaction was started by addition of enzyme and the formation of pNP was assayed as described above in Example 20.1.

[8] = assay type: biochemical, Petromyces albertensis; conditions: for Residual ochratoxin A (%): 5 ppm Ochratoxin A, 37° C., relative to incubation without enzyme

B1: Cf-TP: chimeric variant: catalytic and polymer binding domains of CfCUT with T/P-rich linker domain of KrCUT, SEQ ID NO: 29 (protein)
chain: APACPDVELVFARGTGEAAGLGIVGRPLERALAAELPGRTVVATAVDYAASSSQASAGPGSGDMVAKVRSRAAACPGTQFVLGGYSQGATVTDLALGIRTGVTAGTALPEDLAARVAAVVVYGNPLGLTRRTIAQAAPAFATRTVEYCNAGDPVCEPGGGRFTAHITYATNGTVLEGARFAAARVTAAGTPTTPTPTPTPTPVPTTCVTASSLQHVRDGRAYPLWMRTYARGSGDPLGVLSSRTVVSLQADGTDTWRKVAAC
modifications: YebF carrier; Cf-TP variant
In the case of B1, the “activity of crude culture supernatant” value [1] is reported as 0.6 U/mL, the “Temp. opt. (° C.)” value [2] is reported as 35 °C and the “Relative activity at temperature” value ([2]; 20 ° C.) is reported as 54 ± 5%. For the same molecule, the “Relative activity at temperature” value ([2]; 25 ° C.) was 84 ± 9%, the “Relative activity at temperature” value ([2]; 30 ° C.) was 95 ± 5% and the “Relative activity at temperature” value ([2]; 35 ° C.) was 100* %. The “Relative activity at temperature” value ([2]; 40 ° C.) was 89 ± 6%, the “Relative activity at temperature” value ([2]; 45 ° C.) was 72 ± 7% and the “Relative activity at temperature” value ([2]; 50 ° C.) was 37 ± 6%. The “Relative activity at temperature” value ([2]; 55 ° C.) was 9 ± 1%, the “Enzymatic activity of the purified variant” value ([3]; pNP-palmitate) was 30 ± 2 U/mg and the “Spec. Act. (U/mg)” value ([3]; towards pNP-palmitate (standard assay)) was 30 ± 2 U/mg. The pH opt. [4] was 9.5, the “Relative activity (%)” value ([4]; pH 6.5, sodium phosphate buffer) was 12 ± 1% and the “Relative activity (%)” value ([4]; pH 7.0, sodium phosphate buffer) was 22 ± 1%. For the same molecule, the “Relative activity (%)” value ([4]; pH 7.5, sodium phosphate buffer) was 36 ± 1%, the “Relative activity (%)” value ([4]; pH 8.0, Tris/HCl) was 65 ± 7% and the “Relative activity (%)” value ([4]; pH 8.5, Tris/HCl) was 88 ± 8%. The “Relative activity (%)” value ([4]; pH 9.0, Tris/HCl) was 95 ± 3%, the “Relative activity (%)” value ([4]; pH 9.5, Tris/HCl) was 100* % and the “Relative activity (%)” value ([4]; pH 10, Tris/HCl) was 35 ± 4%. For the same molecule, the “Relative activity (%) after exposure to hydrogen peroxide” value (“Relative activity (%) after exposure” below) ([5]; H2O2 30 ppm, Day 0) was 97 ± 1%, the “Relative activity (%) after exposure” value ([5]; H2O2 30 ppm, Day 1) was 89 ± 4% and the “Relative activity (%) after exposure” value ([5]; H2O2 30 ppm, Day 2) was 78 ± 3%. For the same molecule, the “Relative activity (%) after exposure” value ([5]; H2O2 30 ppm, Day 3) was 86 ± 2%, the “Relative activity (%) after exposure” value ([5]; H2O2 30 ppm, Day 7) was 65 ± 7% and the “Relative activity (%) after exposure” value ([5]; H2O2 100 ppm, Day 0) was 98 ± 6%. The “Relative activity (%) after exposure” value ([5]; H2O2 100 ppm, Day 1) was 91 ± 3%, the “Relative activity (%) after exposure” value ([5]; H2O2 100 ppm, Day 2) was 89 ± 7% and the “Relative activity (%) after exposure” value ([5]; H2O2 100 ppm, Day 3) was 94 ± 7%. The “Relative activity (%) after exposure” value ([5]; H2O2 100 ppm, Day 7) was 74 ± 6%, the “Relative activity (%) after exposure” value ([5]; H2O2 300 ppm, Day 0) was 95 ± 6% and the “Relative activity (%) after exposure” value ([5]; H2O2 300 ppm, Day 1) was 88 ± 3%. For the same molecule, the “Relative activity (%) after exposure” value ([5]; H2O2 300 ppm, Day 2) was 85 ± 12%, the “Relative activity (%) after exposure” value ([5]; H2O2 300 ppm, Day 3) was 98 ± 3% and the “Relative activity (%) after exposure” value ([5]; H2O2 300 ppm, Day 7) was 77 ± 5%. For the same molecule, the “Relative activity (%) after exposure” value ([5]; H2O2 1,500 ppm, Day 0) was 95 ± 9%, the “Relative activity (%) after exposure” value ([5]; H2O2 1,500 ppm, Day 1) was 89 ± 3% and the “Relative activity (%) after exposure” value ([5]; H2O2 1,500 ppm, Day 2) was 88 ± 6%. For the same molecule, the “Relative activity (%) after exposure” value ([5]; H2O2 1,500 ppm, Day 3) was 87 ± 4%, the “Relative activity (%) after exposure” value ([5]; H2O2 1,500 ppm, Day 7) was 68 ± 7% and the “Relative activity (%) after exposure” value ([5]; H2O2 3,000 ppm, Day 0) was 80% and 80 ± 2%. The “Relative activity (%) after exposure” value ([5]; H2O2 3,000 ppm, Day 1) was 74 ± 5%, the “Relative activity (%) after exposure” value ([5]; H2O2 3,000 ppm, Day 2) was 77 ± 2% and the “Relative activity (%) after exposure” value ([5]; H2O2 3,000 ppm, Day 3) was 78 ± 5%. The “Relative activity (%) after exposure” value ([5]; H2O2 3,000 ppm, Day 7) was 57% and 57 ± 5%, the “Relative activity, pNP-acetate (C2)” value [6] was 5% and the “Relative activity, pNP-butyrate (C4)” value [6] was 80 ± 3%. The “Relative activity, pNP-caprylate (C8)” value [6] was 33 ± 1%, the “Relative activity, pNP-decanoate (C10)” value [6] was 66 ± 8% and the “Relative activity, pNP-myristate (C14)” value [6] was 40 ± 4%. The “Relative activity, pNP-palmitate (C16)” value [6] was 100* %, the “Relative enzymatic activity (%)” value ([7]; 2-Propanol 5% (v/v)) was 93 ± 1% and the “Relative enzymatic activity (%)” value ([7]; 2-Propanol 10% (v/v)) was 92 ± 2%. The “Relative enzymatic activity (%)” value ([7]; Acetone 1% (v/v)) was 103 ± 12%, the “Relative enzymatic activity (%)” value ([7]; Acetone 5% (v/v)) was 112 ± 10% and the “Relative enzymatic activity (%)” value ([7]; Acetone 10% (v/v)) was 109 ± 6%. The “Relative enzymatic activity (%)” value ([7]; Dimethyl sulfoxide (DMSO) 10% (v/v)) was 150 ± 14%, the “Relative enzymatic activity (%)” value ([7]; Dimethyl sulfoxide (DMSO) 20% (v/v)) was 146 ± 23% and the “Relative enzymatic activity (%)” value ([7]; Dimethyl sulfoxide (DMSO) 30% (v/v)) was 129 ± 18%. For the same molecule, the “Relative enzymatic activity (%)” value ([7]; Dimethylformamide (DMF) 5% (v/v)) was 134 ± 10%, the “Relative enzymatic activity (%)” value ([7]; Methanol 10% (v/v)) was 121 ± 14% and the “Relative enzymatic activity (%)” value ([7]; Methanol 20% (v/v)) was 94 ± 1%. The “Residual ochratoxin A (%)” value ([8]; 1 h) was 5%, the “Residual ochratoxin A (%)” value ([8]; 4 h) was 0% and the “Residual ochratoxin A (%)” value ([8]; 24 h) was 0%. The “Ochratoxin A degraded” value ([8]; after 4 hours) was 100% and the “Ochratoxin A Degradation per U and h” value ([8]; per 1 U of enzyme (pNP standard test) and hour at 37° C.) was 98 µmol.
